Results taken from IntAct's records for PubMed 19037316.

B1: Gibberellin receptor GID1 (Oryza sativa subsp. japonica (Rice)), Q6L545 (parent)
chain: MAGSDEVNRNECKTVVPLHTWVLISNFKLSYNILRRADGTFERDLGEYLDRRVPANARPLEGVSSFDHIIDQSVGLEVRIYRAAAEGDAEEGAAAVTRPILEFLTDAPAAEPFPVIIFFHGGSFVHSSASSTIYDSLCRRFVKLSKGVVVSVNYRRAPEHRYPCAYDDGWTALKWVMSQPFMRSGGDAQARVFLSGDSSGGNIAHHVAVRAADEGVKVCGNILLNAMFGGTERTESERRLDGKYFVTLQDRDWYWKAYLPEDADRDHPACNPFGPNGRRLGGLPFAKSLIIVSGLDLTCDRQLAYADALREDGHHVKVVQCENATVGFYLLPNTVHYHEVMEEISDFLNANLYY
partner: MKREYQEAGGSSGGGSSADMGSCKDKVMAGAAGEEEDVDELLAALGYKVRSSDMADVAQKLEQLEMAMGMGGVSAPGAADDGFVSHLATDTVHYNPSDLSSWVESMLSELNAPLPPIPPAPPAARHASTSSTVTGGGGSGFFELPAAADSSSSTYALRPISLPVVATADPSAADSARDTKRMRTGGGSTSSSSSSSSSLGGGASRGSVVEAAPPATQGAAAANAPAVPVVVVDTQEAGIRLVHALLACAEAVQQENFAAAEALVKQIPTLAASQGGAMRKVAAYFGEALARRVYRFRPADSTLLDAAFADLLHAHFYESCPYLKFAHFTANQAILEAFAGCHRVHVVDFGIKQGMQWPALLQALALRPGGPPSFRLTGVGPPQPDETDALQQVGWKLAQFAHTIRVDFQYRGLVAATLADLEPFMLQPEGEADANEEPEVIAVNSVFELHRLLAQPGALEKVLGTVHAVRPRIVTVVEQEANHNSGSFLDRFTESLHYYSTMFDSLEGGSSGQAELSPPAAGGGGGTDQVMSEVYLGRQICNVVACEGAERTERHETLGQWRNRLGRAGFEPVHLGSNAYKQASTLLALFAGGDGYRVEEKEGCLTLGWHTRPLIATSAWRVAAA

Variants of: B1
Conditions: with slr1_orysj SLR1, Q7G7J6

Question: Which “effect of a mutation on the interaction” value does the source give for L18A;W21A;L29A;I33A;L45A;Y48A here?
Answer: The value was “disrupting interaction”.
